Reference: US10253344B2, “Recombinant production of steviol glycosides” (Conagen Inc., priority 2013, dated 2019)

How the values were obtained:
Type in all cases: biochemical
[1] = in vitro conversion of rebaudioside E to rebaudioside D by recombinant UGT76G1, with or without AtSUS1; conditions: with or without AtSUS1, 6 hours
Method: Codon optimized UGT76G1 cDNA was inserted in a bacterial expression vector, and the recombinant UGT76G1 protein was expressed and purified by affinity chromatography. The purified recombinant UGT76G1 polypeptide was analyzed by SDS-PAGE (molecular weight: 65.4 kD, FIG. 9). The rebaudioside E substrate was incubated with the recombinant UGT76G1, with or without AtSUS1, under conditions similar to those used in the Examples above. The products were analyzed by HPLC. […] Addition of recombinant AtSUS in the reaction enhanced the conversion efficiency in UGT-SUS coupling system.

[2] = enzymatic activity screening of candidate UGT polypeptides for 1,2-19-O-glucose glycosylation activity (in vitro reaction, HPLC); conditions: stevioside or Reb A as substrate, 30° C.
Method: (§1) The purified candidate UGT recombinant polypeptides were assayed for 1,2-19-O-glucose glycosylation activity by using stevioside or Reb A as the substrate (FIGS. 1A-1C). Typically, the recombinant polypeptide (10 μg) was tested in a 200 μl in vitro reaction system. The reaction system contains 50 mM potassium phosphate buffer, pH 7.2, 3 mM MgCl2, 1 mg/ml stevioside or rebaudioside A, 1 mM UDP-glucose. The reaction was performed at 30° C. and terminated by adding 200 μL 1-butanol. The samples were extracted three times with 200 μL 1-butanol. The pooled fraction was dried and dissolved in 70 μL 80% methanol for high-performance liquid chromatography (HPLC) analysis. Stevia extract (Blue California, Calif.), containing 95% stevioside, was used as stevioside substrate. Rebaudioside A (purity 99%) was also supplied by Blue California.
(§2) The UGT catalyzed glycosylation reaction was be coupled to a UDP-glucose generating reaction catalyzed by a sucrose synthase (such as AtSUS1 of SEQ ID NO:9). […] The purified recombinant AtSUS1 polypeptide was analyzed by SDS-PAGE (molecular weight: 106.3 kD, FIG. 7). […]
(§3) HPLC analysis was then performed using a Dionex UPLC ultimate 3000 system (Sunnyvale, Calif.), including a quaternary pump, a temperature controlled column compartment, an auto sampler and a UV absorbance detector. […]

[3] = in vitro conversion of rebaudioside A to rebaudioside D by recombinant HV1 polypeptide, with or without AtSUS1
Method: as §1, §2, §3

[4] = in vitro conversion of stevioside by recombinant HV1 polypeptide in UGT-SUS coupling reaction system
Method: as §1, with “Stevia extract (Blue California, Calif.), containing 95% stevioside, was used as stevioside substrate. Rebaudioside A (purity 99%) was also supplied by Blue California.” left out
as §2, §3
Accordingly, the catalytic activity of the recombinant HV1 polypeptide for steviol glycoside biosynthesis (e.g., production of rebaudioside D) was further determined in combination with UGT76G1. […] The products were analyzed by HPLC.

[5] = in vitro conversion of Reb E to Reb Z by recombinant HV1 polypeptide and AtSUS1; conditions: Reb E 0.5 mg/ml, HV1 20 μg and AtSUS1 20 μg, 24 hours
Method: An unexpected compound (“Reb Z”) having a HPLC retention time 6.68 minute (see, FIG. 4) that was distinctive from rebaudiosides D and E was produced. This compound represents a novel steviol glycoside, and is termed “rebaudioside Z” (“Reb Z”). To confirm the conversion of Reb E to Reb Z, Reb E substrate (0.5 mg/ml) was incubated with the recombinant HV1 polypeptide (20 μg) and AtSUS1 (20 μg) in a UGT-SUS coupling reaction system ([…]) under conditions similar to those used in the examples above.

Row | Molecule | 1,3-13-O-glucose glycosylation activity (Reb D from Reb E) [1] | 1,2-19-O-glucose glycosylation activity [2] | conversion of rebaudioside A to rebaudioside D ([3]; HV1 alone without AtSUS1, after 24 hours) | conversion of rebaudioside A to rebaudioside D ([3]; UGT-SUS coupling reaction system (with AtSUS1), 6-24 hours) | production of rebaudioside D from stevioside ([4]; HV1 10 μg in combination with UGT76G1 10 μg and AtSUS1 10 μg) | conversion of stevioside to rebaudioside E ([4]; coupled with AtSUS1, in vitro, 20 hours) | production of Reb Z from Reb E [5]
1 | UGT76G1: recombinant UDP-glycosyltransferase from stevia (SEQ ID NO:11) (protein, listed as Stevia rebaudiana) MENKTETTVRRRRRIILFPVPFQGHINPILQLANVLYSKGFSITIFHTNFNKPKTSNYPHFTFRFILDNDPQDERISNLPTHGPLAGMRIPIINEHGADELRRELELLMLASEEDEEVSCLITDALWYFAQSVADSLNLRRLVLMTSSLFNFHAHVSLPQFDELGYLDPDDKTRLEEQASGFPMLKVKDIKSAYSNWQILKEILGKMIKQTKASSGVIWNSFKELEESELETVIREIPAPSFLIPLPKHLTASSSSLLDHDRTVFQWLDQQPPSSVLYVSFGSTSEVDEKDFLEIARGLVDSKQSFLWVVRPGFVKGSTWVEPLPDGFLGERGRIVKWVPQQEVLAHGAIGAFWTHSGWNSTLESVCEGVPMIFSDFGLDQPLNARYMSDVLKVGVYLENGWERGEIANAIRRVMVDEEGEYIRQNARVLKQKADVSLMKGGSSYESLESLVSYISSL | showed a 1,3-13-O-glucose glycosylation activity | – | – | – | – | – | –
2 | HV1: recombinant UDP-glycosyltransferase polypeptide (SEQ ID NO:6) derived from Hordeum vulgare subsp. vulgare (protein, Hordeum vulgare) MDGNSSSSPLHVVICPWLALGHLLPCLDIAERLASRGHRVSFVSTPRNIARLPPLRPAVAPLVDFVALPLPHVDGLPEGAESTNDVPYDKFELHRKAFDGLAAPFSEFLRAACAEGAGSRPDWLIVDTFHHWAAAAAVENKVPCVMLLLGAATVIAGFARGVSEHAAAAVGKERPAAEAPSFETERRKLMTTQNASGMTVAERYFLTLMRSDLVAIRSCAEWEPESVAALTTLAGKPVVPLGLLPPSPEGGRGVSKEDAAVRWLDAQPAKSVVYVALGSEVPLRAEQVHELALGLELSGARFLWALRKPTDAPDAAVLPPGFEERTRGRGLVVTGWVPQIGVLAHGAVAAFLTHCGWNSTIEGLLFGHPLIMLPISSDQGPNARLMEGRKVGMQVPRDESDGSFRREDVAATVRAVAVEEDGRRVFTANAKKMQEIVADGACHERCIDGFIQQLRSYKA | – | showed a 1,2-19-O-glucose glycosylation activity | only partial rebaudioside A was converted | completely converted | rebaudioside D was produced | converted stevioside to rebaudioside E | Reb Z was produced
